How the values were obtained:
[1] = biological target: human CD33 P46S (human) (UniProt P20138); experiment: flow cytometry on transfected cells, IgG
[2] = biological target: human CD33 F44L (human) (UniProt P20138); experiment: flow cytometry on transfected cells, IgG
[3] = biological target: human CD33 F44T (human) (UniProt P20138); experiment: flow cytometry on transfected cells, IgG
[4] = biological target: human CD33 P48V (human) (UniProt P20138); experiment: flow cytometry on transfected cells, IgG
human CD33 P48V (human), sequence (P20138 18-364 P48V limits assumed): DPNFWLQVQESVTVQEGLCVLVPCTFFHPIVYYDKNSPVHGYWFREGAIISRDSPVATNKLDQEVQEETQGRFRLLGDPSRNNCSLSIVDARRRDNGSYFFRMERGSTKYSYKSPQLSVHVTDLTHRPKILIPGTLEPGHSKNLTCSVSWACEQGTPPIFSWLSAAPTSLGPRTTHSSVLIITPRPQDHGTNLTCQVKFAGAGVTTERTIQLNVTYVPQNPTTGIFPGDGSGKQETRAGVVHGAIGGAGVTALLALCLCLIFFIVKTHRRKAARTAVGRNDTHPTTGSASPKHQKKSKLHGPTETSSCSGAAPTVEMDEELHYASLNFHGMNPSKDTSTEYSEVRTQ

[5] = biological target: human CD33 P46F (human) (UniProt P20138); experiment: flow cytometry on transfected cells, IgG
[6] = biological target: human CD33 Y49T (human) (UniProt P20138); experiment: flow cytometry on transfected cells, IgG
[7] = biological target: human CD33 P48S (human) (UniProt P20138); experiment: flow cytometry on transfected cells, IgG
human CD33 P48S (human), sequence (P20138 18-364 P48S limits assumed): as the sequence (P20138 18-364 P48V limits assumed) above, with V31S counted along it

[8] = biological target: human CD33 Y49D (human) (UniProt P20138); experiment: flow cytometry on transfected cells, IgG
[9] = biological target: human CD33 I47W (human) (UniProt P20138); experiment: flow cytometry on transfected cells, IgG
human CD33 I47W (human), sequence (P20138 18-364 I47W limits assumed): as the sequence (P20138 18-364 P48V limits assumed) above, with I30W, V31P counted along it

[10] = biological target: human CD33 I47F (human) (UniProt P20138); experiment: flow cytometry on transfected cells, IgG
[11] = biological target: human CD33 G263A (human) (UniProt P20138); experiment: alanine scan, flow cytometry
[12] = biological target: human CD33 Y233A (human) (UniProt P20138); experiment: alanine scan, flow cytometry
[13] = biological target: human CD33 V257A (human) (UniProt P20138); experiment: alanine scan, flow cytometry
human CD33 V257A (human), sequence (P20138 18-364 V257A limits assumed): as the sequence (P20138 18-364 P48V limits assumed) above, with V31P, V240A counted along it

[14] = biological target: human CD33 V267A (human) (UniProt P20138); experiment: alanine scan, flow cytometry
[15] = biological target: human CD33 Q236A (human) (UniProt P20138); experiment: alanine scan, flow cytometry
[16] = biological target: human CD33 Q251A (human) (UniProt P20138); experiment: alanine scan, flow cytometry
[17] = biological target: human CD33 G264A (human) (UniProt P20138); experiment: alanine scan, flow cytometry
[18] = biological target: human CD33 P238A (human) (UniProt P20138); experiment: alanine scan, flow cytometry
[19] = biological target: human CD33 L229A (human) (UniProt P20138); experiment: alanine scan, flow cytometry
[20] = biological target: human CD33 N230A (human) (UniProt P20138); experiment: alanine scan, flow cytometry
[21] = biological target: human CD33 T240A (human) (UniProt P20138); experiment: alanine scan, flow cytometry
[22] = biological target: human CD33 V214A (human) (UniProt P20138); experiment: alanine scan, flow cytometry
human CD33 V214A (human), sequence (P20138 18-364 V214A limits assumed): as the sequence (P20138 18-364 P48V limits assumed) above, with V31P, V197A counted along it

[23] = biological target: human CD33 A255S (human) (UniProt P20138); experiment: alanine scan, flow cytometry
[24] = biological target: human CD33 T200A (human) (UniProt P20138); experiment: alanine scan, flow cytometry
human CD33 T200A (human), sequence (P20138 18-364 T200A limits assumed): as the sequence (P20138 18-364 P48V limits assumed) above, with V31P, T183A counted along it

[25] = biological target: human CD33 V258A (human) (UniProt P20138); experiment: alanine scan, flow cytometry
[26] = biological target: human CD33 V221A (human) (UniProt P20138); experiment: alanine scan, flow cytometry
human CD33 V221A (human), sequence (P20138 18-364 V221A limits assumed): as the sequence (P20138 18-364 P48V limits assumed) above, with V31P, V204A counted along it

[27] = biological target: human CD33 K250A (human) (UniProt P20138); experiment: alanine scan, flow cytometry
human CD33 K250A (human), sequence (P20138 18-364 K250A limits assumed): as the sequence (P20138 18-364 P48V limits assumed) above, with V31P, K233A counted along it

[28] = biological target: human CD33 T208A (human) (UniProt P20138); experiment: alanine scan, flow cytometry
[29] = biological target: human CD33 G256A (human) (UniProt P20138); experiment: alanine scan, flow cytometry
[30] = biological target: human CD33 K215A (human) (UniProt P20138); experiment: alanine scan, flow cytometry
[31] = biological target: human CD33 A219S (human) (UniProt P20138); experiment: alanine scan, flow cytometry
human CD33 A219S (human), sequence (P20138 18-364 A219S limits assumed): as the sequence (P20138 18-364 P48V limits assumed) above, with V31P, A202S counted along it

[32] = biological target: human CD33 L210A (human) (UniProt P20138); experiment: alanine scan, flow cytometry
human CD33 L210A (human), sequence (P20138 18-364 L210A limits assumed): as the sequence (P20138 18-364 P48V limits assumed) above, with V31P, L193A counted along it

[33] = biological target: human CD33 I242A (human) (UniProt P20138); experiment: alanine scan, flow cytometry
human CD33 I242A (human), sequence (P20138 18-364 I242A limits assumed): as the sequence (P20138 18-364 P48V limits assumed) above, with V31P, I225A counted along it

[34] = biological target: human CD33 G207A (human) (UniProt P20138); experiment: alanine scan, flow cytometry
[35] = biological target: human CD33 L197A (human) (UniProt P20138); experiment: alanine scan, flow cytometry
[36] = biological target: human CD33 G241A (human) (UniProt P20138); experiment: alanine scan, flow cytometry
[37] = biological target: human CD33 A261S (human) (UniProt P20138); experiment: alanine scan, flow cytometry
[38] = biological target: human CD33 G249A (human) (UniProt P20138); experiment: alanine scan, flow cytometry
[39] = biological target: human CD33 T211A (human) (UniProt P20138); experiment: alanine scan, flow cytometry
human CD33 T211A (human), sequence (P20138 18-364 T211A limits assumed): as the sequence (P20138 18-364 P48V limits assumed) above, with V31P, T194A counted along it

[40] = biological target: human CD33 R202A (human) (UniProt P20138); experiment: alanine scan, flow cytometry
[41] = biological target: human CD33 I227A (human) (UniProt P20138); experiment: alanine scan, flow cytometry
[42] = biological target: human CD33 T226A (human) (UniProt P20138); experiment: alanine scan, flow cytometry
[43] = biological target: human CD33 T253A (human) (UniProt P20138); experiment: alanine scan, flow cytometry
human CD33 T253A (human), sequence (P20138 18-364 T253A limits assumed): as the sequence (P20138 18-364 P48V limits assumed) above, with V31P, T236A counted along it

[44] = biological target: human CD33 E252A (human) (UniProt P20138); experiment: alanine scan, flow cytometry
[45] = biological target: human CD33 G245A (human) (UniProt P20138); experiment: alanine scan, flow cytometry
[46] = biological target: human CD33 D246A (human) (UniProt P20138); experiment: alanine scan, flow cytometry
human CD33 D246A (human), sequence (P20138 18-364 D246A limits assumed): as the sequence (P20138 18-364 P48V limits assumed) above, with V31P, D229A counted along it

[47] = biological target: human CD33 T222A (human) (UniProt P20138); experiment: alanine scan, flow cytometry
[48] = biological target: human CD33 V231A (human) (UniProt P20138); experiment: alanine scan, flow cytometry
[49] = biological target: human CD33 A265S (human) (UniProt P20138); experiment: alanine scan, flow cytometry
[50] = biological target: human CD33 P244A (human) (UniProt P20138); experiment: alanine scan, flow cytometry
[51] = biological target: human CD33 V234A (human) (UniProt P20138); experiment: alanine scan, flow cytometry

Q: Which results are given for Refmab #7 (WM53) (antibody)?
A: Mean % WT Binding [1]: 96.4 % WT binding; Mean % WT Binding [2]: 99.6 % WT binding; Mean % WT Binding [3]: 31.7 % WT binding; Mean % WT Binding [4]: 0.9 % WT binding; Mean % WT Binding [5]: 23 % WT binding; Mean % WT Binding [6]: 0.1 % WT binding; Mean % WT Binding [7]: 2.6 % WT binding; Mean % WT Binding [8]: 3.9 % WT binding; Mean % WT Binding [9]: 45.4 % WT binding; Mean % WT Binding [10]: 85.2 % WT binding; Mean % WT Binding [11]: 104 % WT binding; Mean % WT Binding [12]: 109 % WT binding; Mean % WT Binding [13]: 124 % WT binding; Mean % WT Binding [14]: 92.6 % WT binding; Mean % WT Binding [15]: 94.3 % WT binding; Mean % WT Binding [16]: 108 % WT binding; Mean % WT Binding [17]: 82.8 % WT binding; Mean % WT Binding [18]: 129 % WT binding; Mean % WT Binding [19]: 114 % WT binding; Mean % WT Binding [20]: 100 % WT binding; Mean % WT Binding [21]: 121 % WT binding; Mean % WT Binding [22]: 120 % WT binding; Mean % WT Binding [23]: 121 % WT binding; Mean % WT Binding [24]: 97.6 % WT binding; Mean % WT Binding [25]: 98.8 % WT binding; Mean % WT Binding [26]: 99.7 % WT binding; Mean % WT Binding [27]: 118 % WT binding; Mean % WT Binding [28]: 102 % WT binding; Mean % WT Binding [29]: 106 % WT binding; Mean % WT Binding [30]: 145 % WT binding; Mean % WT Binding [31]: 121 % WT binding; Mean % WT Binding [32]: 98.6 % WT binding; Mean % WT Binding [33]: 105 % WT binding; Mean % WT Binding [34]: 104 % WT binding; Mean % WT Binding [35]: 115 % WT binding; Mean % WT Binding [36]: 131 % WT binding; Mean % WT Binding [37]: 102 % WT binding; Mean % WT Binding [38]: 114 % WT binding; Mean % WT Binding [39]: 98.1 % WT binding; Mean % WT Binding [40]: 104 % WT binding; Mean % WT Binding [41]: 101 % WT binding; Mean % WT Binding [42]: 99.1 % WT binding; Mean % WT Binding [43]: 112 % WT binding; Mean % WT Binding [44]: 120 % WT binding; Mean % WT Binding [45]: 122 % WT binding; Mean % WT Binding [46]: 99.5 % WT binding; Mean % WT Binding [47]: 110 % WT binding; Mean % WT Binding [48]: 112 % WT binding; Mean % WT Binding [49]: 110 % WT binding; Mean % WT Binding [50]: 99 % WT binding; Mean % WT Binding [51]: 98.6 % WT binding

From patent US20260242735A1
